Read-outs that look alike come from different tables or passages of the source.
How the values were obtained:
[1] = target: peripheral node addressin; assay: parallel plate laminar flow chamber, duration of transient cell tethers
[2] = target: peripheral node addressin; assay: as above; remark: listed apart in the source

B1: L-selectin (receptor)
chain: WTYHYSEKPMNWQRARRFCRDNYTDLVAIQNKAEIEYLEKTLPFSRSYYWIGIRKIGGIWTWVGTNKSLTEEAENWGDGEPNNKKNKEDCVEIYIKRNKDAGKWNDDACHKLKAALCYTASCQPWSCSGHGECVEIINNYTCNCDVGYYGPQCQFVIQCEPLEAPELGTMDCTHPLGNFSFSSQCAFSCSEGTNLTGIEETTCGPFGNWSSPEPTCQVIQCEPLSAPDLGIMNCSHPLASFSFTSACTFICSEGTELIGKKKTICESSGIWSNPSPICQKLDKSFSMIKEGDYNPLFIPVAVMVTAFSGLAFIIWLARRLKKGKKSKRSMNDPY
- transient tether lifetime [1]: 0.087 s
- transient tether lifetime [2]: 0.057 s

Source: publication PMC2148129
